These results are taken from PMC5799255, “Histone H5 is a potent Antimicrobial Agent and a template for novel Antimicrobial Peptides” (Scientific Reports, 2018).

Data set [1] deals with Gram-positive and Gram-negative planktonic bacteria. In words: Broth microdilution assay, summary over the planktonic bacteria tested. The note with it: bactericidal when MBC ≤4 times the MIC. The data set is classed as cell-based. The method, then: Antimicrobial activity of histone H5 against a variety of Gram-positive and Gram-negative planktonic bacteria was evaluated using a broth microdilution assay. The average minimum inhibitory concentration (MIC) and minimum bactericidal concentration (MBC) values (mean ± SD, n = 3) for six Gram-positive and four Gram-negative bacterial species are shown in Table 2. […] E. faecalis was the least susceptible to histone H5 inhibition, requiring over 32 µg/mL for complete bacterial growth inhibition which was the highest histone H5 concentration tested.
The bacterial strains tested in this study were Gram-positive bacteria (Bacillus cereus (ATCC 11778), methicillin-sensitive Staphylococcus aureus (ATCC 6538), methicillin-resistant Staphylococcus aureus (ATCC 29247), Listeria monocytogenes (ATCC 19112), Enterococcus faecalis (clinical isolate) and vancomycin-resistant Enterococcus (ATCC 51299)) and Gram-negative bacteria Escherichia coli K12 (ATCC 29425), Escherichia coli (O157:H7), Pseudomonas aeruginosa (ATCC 15442) and Salmonella typhimurium (ATCC 1535)). Bacterial colonies from glycerol stocks were plated on LB agar plates (BHI agar plates for L. monocytogenes) and incubated overnight at 37 °C. […]
The protocol for this step of the project was based on established methods22. […] The microplate was incubated in the EON microplate reader overnight at 206 oscillations/min and at 37°C. […]
On the technique in general: In broth dilution the organism is exposed to a series of concentrations in liquid medium.

The nature of data set [2]: Circular dichroism (CD) secondary structure analysis, CDSSTR deconvolution. It counts as physicochemical. As to conditions: for α-helix: room temperature, average of two independent measurements. Here is the method: The secondary structure of histone H5 and the three preparations of histone H5-derived peptide H5(61–90) was investigated in different environments: sterile H2O, pH 7.4 (aqueous environment) and 30 mM SDS (mimicking the negatively charged bacterial membrane environment), by circular dichroism (CD) spectroscopy. […] Deconvolution of the spectral data with the CDSSTR program estimated the secondary structural components (α-helix, β-sheet, turns, etc.) of each peptide (Table 8). […] However, the α-helical proportions in the presence of 30 mM SDS were 76.9%, 84.2%, 75.5% and 84.7% for histone H5, H5(61–90) V1, H5(61–90) V2 and H5(61–90) V3, respectively.
The protocol followed for circular dichroism spectrometry was based on previously described methods. Circular dichroism (CD) measurements were performed using a Jasco-715 Spectropolarimeter (Japan Spectroscopic Co., Tokyo), in which the wavelengths scanned were 185 to 260 nm, using a scan speed of 100 nm/min, a bandwidth and data pitch of 1.0 nm, with a quartz cell (0.1 cm path length). Histone H5 and histone H5-derived peptides were dissolved in sterile ddH2O, pH 7.4, or 30 mM SDS. The CD spectrum of sterile ddH2O (buffer of the samples) was used as the blank. Each CD spectrum represents the average of two independent measurements, each in quintuplicate. The CD data was converted to molar ellipticity [θ], which was calculated using the following equation:1 [θ]=CDinmdeg/(10×pathlengthincm×Cr) where Cr = number of residues x molar concentration (mol/L).
In order to estimate secondary structure content, averaged CD spectra for each peptide were analysed using the CDSSTR software. This program analyzes the molar ellipticity [θ] values at each wavelength and compares them with a library of known protein secondary structures (α-helix, β-sheet, turns, etc.) in order to estimate the percentages of the various secondary structural components of the tested peptide samples.
On the technique in general: Circular dichroism is widely used to follow secondary structure.

The test system of the next data set is Pseudomonas aeruginosa. In words: Scanning electron microscopy of treated planktonic bacteria. It counts as cell-based. The note with it: 4 µg/mL, 3-hour incubation; three independent trials, each in duplicate. The method, then: (§1) In order to study the effect of histone H5 on bacterial membranes, Gram-positive and Gram-negative planktonic bacteria incubated with histone H5 were visualized by scanning electron microscopy (SEM). Representative SEM images of Listeria monocytogenes and Pseudomonas aeruginosa untreated (H2O control) and histone H5-treated bacterial cells are shown in Fig. 3. […] Similar observations were made in each of three independent trials, each performed in duplicate.
(§2) The same protocols as described in the preparation of the bacterial suspension and the broth microdilution assay were followed to prepare the histone H5-treated bacteria and the untreated control cells for SEM. After a 3-hour incubation of the 1:1 (v/v) ratio of planktonic bacteria and histone H5 (or 1:1 (v/v) ratio of planktonic bacteria and sterile H2O for the untreated control cells), 100 µL of this solution was filtered directly through an Isopore™ polycarbonate membrane filter ([…], EMD Millipore Co Cork, IRL) which was placed in a Swinny Stainless Steel 13 mm Filter Holder (EMD Millipore, MA, USA) connected to vacuum suction. The filter was then removed and placed onto a Kimwipe™ (Kimberly-Clark™ Professional Kimtech Science™) in a glass cell culture dish. The filters were fixed with 5% glutaraldehyde in 0.1 M sodium cacodylate, pH 7.5 (VWR, Radnor, PA, USA) overnight at 4 °C. […]

For the next data set, the system named is Listeria monocytogenes. Described as above. The data set is classed as cell-based. The note with it: 4 µg/mL, 3-hour incubation; three independent trials, each in duplicate. Here is the method:
as §1, §2

B1: histone H5: erythrocyte-specific linker histone purified from chicken erythrocytes, 190 amino acids (protein, UniProt P02259 2-190, looked up)
Histone H5: TESLVLSPAPAKPKRVKASRRSASHPTYSEMIAAAIRAEKSRGGSSRQSIQKYIKSHYKVGHNADLQIKLSIRRLLAAGVLKQTKGVGASGSFRLAKSDKAKRSPGKKKKAVRRSTSPKKAARPRKARSPAKKPKATARKARKKSRASPKKAKKPKTVKAKSRKASKAKKVKRSKPRAKSGARKSPKKK
Molecule B1 had an MBC/MIC in data set [1] not above 4. For the same molecule, the “Random Coil” value in data set [2] (30 mM SDS, CD) came to 8.9%; in data set [2] (sterile ddH2O pH 7.4, CD), 32.2%. The Turns amounted to 4.5% in data set [2] (30 mM SDS, CD) and 22.4% in data set [2] (sterile ddH2O pH 7.4, CD). In addition, the β-sheet came to 9.7% in data set [2] (30 mM SDS, CD) and 22.7% in data set [2] (sterile ddH2O pH 7.4, CD). The α-helix amounted to 76.9% in data set [2] (30 mM SDS, CD 185-260 nm) and 23.4% in data set [2] (sterile ddH2O pH 7.4, CD 185-260 nm). Besides, the “bacterial cell morphology by SEM” value with Pseudomonas aeruginosa is “indentations in the bacterial membrane, small pore formation”; in the data set with Listeria monocytogenes it was “Multiple indentations in the bacterial membrane, membrane wrinkling and pronounced deformations”.
